Patent publication EP4682170A1
pKd: −log10 of the molar value.

Columns and labels:
[1] = biological target: human CD3 on T cells of human peripheral blood mononuclear cells (human) (UniProt P07766); assay: cell-based or functional assay
human CD3εδ (human) [2] = biological target: human CD3εδ (human) (UniProt P07766); assay: SPR, Biacore T200; human CD3εδ immobilised on CM5 chip, antibody as analyte
human CD3εγ (human) = human CD3εγ (human) (UniProt P07766); assay: SPR, Biacore T200; human CD3εγ immobilised on CM5 chip, antibody as analyte
Sequence of human CD3εγ (human) (P07766 23-126, chain 1 of 2): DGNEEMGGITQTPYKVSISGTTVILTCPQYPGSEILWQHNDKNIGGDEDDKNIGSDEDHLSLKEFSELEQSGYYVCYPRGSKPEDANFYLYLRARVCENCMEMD
Sequence of human CD3εγ (human) (P09693 23-116, chain 2 of 2, further chain): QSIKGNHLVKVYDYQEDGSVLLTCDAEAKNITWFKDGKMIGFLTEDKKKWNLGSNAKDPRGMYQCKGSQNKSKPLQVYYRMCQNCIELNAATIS

human CD3εδ (human) [3] = biological target: human CD3εδ (human) (UniProt P07766); assay: SPR, Biacore T200; ratio between the KD values on CD3εδ and CD3εγ
human CD3εδ (human) [4] = biological target: human CD3εδ (human) (UniProt P07766); assay: SPR, Biacore T200; human CD3εδ immobilised on CM5 chip, antibody as analyte (Example 2-3)

Sequence of human CD3εδ (human) (P07766 23-126, stated change not applied, chain 1 of 2): as the sequence (P07766 23-126, chain 1 of 2) above
Sequence of human CD3εδ (human) (P04234 22-105, stated change not applied, chain 2 of 2, further chain): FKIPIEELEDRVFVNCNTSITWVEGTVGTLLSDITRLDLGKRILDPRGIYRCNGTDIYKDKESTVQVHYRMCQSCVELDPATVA
Sequence of human CD3 on T cells of human peripheral blood mononuclear cells (human) (P07766 23-207, chain 1 of 3): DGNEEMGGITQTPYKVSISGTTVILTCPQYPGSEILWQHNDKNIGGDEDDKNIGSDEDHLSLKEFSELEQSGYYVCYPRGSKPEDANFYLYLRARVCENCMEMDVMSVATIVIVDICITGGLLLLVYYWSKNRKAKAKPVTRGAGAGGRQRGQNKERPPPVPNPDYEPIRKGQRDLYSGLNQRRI
Sequence of human CD3 on T cells of human peripheral blood mononuclear cells (human) (P04234 22-171, chain 2 of 3, further chain): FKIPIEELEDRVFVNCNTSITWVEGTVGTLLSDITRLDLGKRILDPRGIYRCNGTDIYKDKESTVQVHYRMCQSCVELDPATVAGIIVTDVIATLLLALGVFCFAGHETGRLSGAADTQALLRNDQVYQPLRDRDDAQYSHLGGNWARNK
Sequence of human CD3 on T cells of human peripheral blood mononuclear cells (human) (P09693 23-182, chain 3 of 3, further chain): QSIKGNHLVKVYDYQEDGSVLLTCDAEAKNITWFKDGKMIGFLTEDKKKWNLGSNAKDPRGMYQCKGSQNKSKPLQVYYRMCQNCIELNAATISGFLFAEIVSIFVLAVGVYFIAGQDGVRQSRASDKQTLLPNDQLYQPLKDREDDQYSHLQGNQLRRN

IFNγ release, EC50 nM [1]: 0.003 nM | IFNγ release, Maximum concentration [1]: 16 ng/mL | T cell activation (CD3+ CD8+ CD69+), human PBMC alone without target cells [1]: 60% | pKd (human CD3εδ (human) [2]): 10.85 | pKd (human CD3εγ (human)): 9.57 | ratio of the binding strength to CD3εδ / binding strength to CD3εγ (human CD3εδ (human) [3]): 19.3 fold | pKd (human CD3εδ (human) [4]): 10.47
Substance: CD3 (UCHT1)-binding monoclonal antibody
Death of cancer cells, EC50 nM (MDA-MB-231 + human PBMC, 48 h) [1]: 0.0005 nM | Death of cancer cells, Emax (%) [1]: 46%
